For 57 variants, Kd and yeast surface expression results are on record in the FLAb antibody collection (doi:10.7554/elife.23156).

Sequences and labels used below:
B1: scFv; the commonest letter at each place (parent)
chain 1: EVKLDETGGGLVQPGRPMKLSCVASGFTFSDYWMNWVRQSPEKGLEWVAQIRNKPYNYETYYSDSVKGRFTISRDDSKSSVYLQMNNLRVEDMGIYYCTGSYYGMDYWGQGTSVTVS
chain 2: DVVMTQTPLSLPVSLGDQASISCRSSQSLVHSNGNTYLRWYLQKPGQSPKVLIYKVSNRFSGVPDRFSGSGSGTDFTLKISRVEAEDLGVYFCSQSTHVPWTFGGGTKLEIK

A value given as a limit tells only on which side of the number the result lay.

The data set “fluorescein” covers variants of B1. Put plainly: Kd (Tite-Seq). Particulars: with fluorescein; format: scFv 4-4-20, heavy + light.
Variants of B1 are the subject of data set [1]. Put plainly: yeast surface expression (ratio to wild type); higher = more expressed. The settings on record: format: scFv 4-4-20, heavy + light.

In the case of chain 1 G100H Y107H, the Kd with fluorescein is at least 10 µM. Also, in data set [1], the yeast surface expression was 0.348.
Consider chain 1 S101R G104T, for which the Kd with fluorescein is at least 10 µM. Further, the yeast surface expression in data set [1] is 0.647.
In the same order, the values of chain 1 S101R G104P are at least 10 µM and 0.361.
Taken in the same sequence, the figures for chain 1 S101K G104W M105V were at least 10 µM and 0.205.
Taken in the same sequence, the figures for chain 1 M34V W36N were at least 10 µM and 0.502.
Turning to chain 1 W108A G109H, the Kd in the data set with fluorescein was at least 10 µM. Besides, the yeast surface expression in data set [1] is 0.356.
Taken in the same sequence, the figures for chain 1 Y32F W33Y were at least 10 µM and 0.757.
Regarding chain 1 F29S D31W, the Kd with fluorescein is at least 10 µM. Moreover, in data set [1], the yeast surface expression was found to be 0.756.
Taken in the same sequence, the figures for chain 1 G100I W108R were at least 10 µM and 0.781.
Taken in the same sequence, the figures for chain 1 G100V D106Q were at least 10 µM and 0.639.
Taken in the same sequence, the figures for chain 1 G104H Y107R were at least 10 µM and 0.518.
For the variant chain 1 S101R D106N, in the data set with fluorescein, the Kd was at least 10 µM. In addition, the yeast surface expression in data set [1] worked out at 0.225.
In the same order, the values of chain 1 S101R D106L are at least 10 µM and 0.0991.
Taken in the same sequence, the figures for chain 1 F29Q W36T were at least 10 µM and 0.359.
chain 1 W108S G109R: the Kd with fluorescein was at least 10 µM. Moreover, the yeast surface expression in data set [1] came out at 0.307.
In the same order, the values of chain 1 Y103S G104D are at least 10 µM and 1.12.
For the variant chain 1 Y102H D106I, the Kd with fluorescein is at least 10 µM. Also, the yeast surface expression in data set [1] came to 0.595.
Take chain 1 Y32P W33C: the Kd with fluorescein is 2.47 µM. Besides, the yeast surface expression in data set [1] came out at 0.832.
With chain 1 Y102S D106R, the Kd with fluorescein is at least 10 µM. In data set [1], the yeast surface expression came out at 0.499.
With chain 1 D31S M34G, the Kd in the data set with fluorescein was at least 10 µM. Also, the yeast surface expression in data set [1] was determined as 0.543.
Taken in the same sequence, the figures for chain 1 T28M Y32W were at least 10 µM and 0.903.
As to chain 1 Y32L M34T W36I, the dissociation constant Kd with fluorescein is at least 10 µM. For the same variant, the yeast surface expression in data set [1] came out at 0.622.
chain 1 F29S W36Q: the Kd in the data set with fluorescein is at least 10 µM. The yeast surface expression in data set [1] came to 0.549.
In the same order, the values of chain 1 T28V S30D are 0.000454 µM and 0.917.
In the same order, the values of chain 1 D31R Y32K V37Y are at least 10 µM and 1.3.
For chain 1 G100A M105Q, the Kd with fluorescein is 0.0245 µM. Moreover, the yeast surface expression in data set [1] was determined as 1.15.
Take chain 1 Y32Q W36N V37K: the Kd with fluorescein is at least 10 µM. Besides, the yeast surface expression in data set [1] came to 0.902.
For chain 1 S101L M105L, in the data set with fluorescein, the Kd was at least 10 µM. Further, in data set [1], the yeast surface expression stood at 0.334.
Taken in the same sequence, the figures for chain 1 T28D V37G were 0.205 µM and 1.16.
In the same order, the values of chain 1 D106P W108K are at least 10 µM and 0.407.
In the same order, the values of chain 1 S101I Y102M are at least 10 µM and 0.621.
chain 1 W33H V37F: the Kd with fluorescein was at least 10 µM. Further, the yeast surface expression in data set [1] stood at 0.859.
For the variant chain 1 S30D W36V, in the data set with fluorescein, the Kd was at least 10 µM. Also, in data set [1], the yeast surface expression stood at 0.766.
chain 1 N35W V37Q: the Kd with fluorescein is at least 10 µM. Further, in data set [1], the yeast surface expression amounted to 0.372.
Taken in the same sequence, the figures for chain 1 S30E D31S were 0.00239 µM and 0.987.
For the variant chain 1 Y32R W36V, the Kd in the data set with fluorescein was at least 10 µM. Also, in data set [1], the yeast surface expression was found to be 0.547.
In the same order, the values of chain 1 G100W G104L W108M are at least 10 µM and 0.108.
Taken in the same sequence, the figures for chain 1 T28G F29P were at least 10 µM and 0.769.
In the same order, the values of chain 1 T28C M34S are at least 10 µM and 0.611.
Consider chain 1 W108P, for which, in the data set with fluorescein, the Kd is 0.00272 µM. The yeast surface expression in data set [1] was determined as 0.625.
In the same order, the values of chain 1 W108M are at most 0.000316 µM and 1.
As to chain 1 W108V, the Kd with fluorescein was at most 0.000316 µM. The yeast surface expression in data set [1] was 0.831.
For the variant chain 1 W108I, the Kd with fluorescein was at most 0.000316 µM. Also, in data set [1], the yeast surface expression amounted to 0.882.
Taken in the same sequence, the figures for chain 1 W33K V37L were 0.345 µM and 0.761.
Taken in the same sequence, the figures for chain 1 Y103G G109T were at least 10 µM and 0.68.
chain 1 G104K G109C: the Kd with fluorescein was at least 10 µM. Besides, the yeast surface expression in data set [1] is 0.195.
Taken in the same sequence, the figures for chain 1 S30D V37P were at least 10 µM and 0.55.
In the case of chain 1 M105K D106E, the Kd with fluorescein worked out at 3.2 µM. Also, the yeast surface expression in data set [1] is 1.01.
Turning to chain 1 G100K D106S, the Kd in the data set with fluorescein was at least 10 µM. The yeast surface expression in data set [1] came to 0.303.
Taken in the same sequence, the figures for chain 1 F29W W33S were at least 10 µM and 0.431.
Taken in the same sequence, the figures for chain 1 G100N Y102N were at least 10 µM and 0.643.
For chain 1 N35I W36L, the Kd in the data set with fluorescein is at least 10 µM. In addition, the yeast surface expression in data set [1] amounted to 2.65.
In the same order, the values of chain 1 M105Q Y107E W108T are 0.0162 µM and 0.548.
In the same order, the values of chain 1 M34Y V37M are 0.0107 µM and 0.807.
Regarding chain 1 W33A V37N, in the data set with fluorescein, the Kd was at least 10 µM. For the same variant, the yeast surface expression in data set [1] was 0.49.
Taken in the same sequence, the figures for chain 1 Y107D W108Q were at least 10 µM and 0.706.
Taken in the same sequence, the figures for chain 1 D106L W108C were at least 10 µM and 0.234.
